From patent US20240043505A1

Biological target: SARS-CoV-2 RBD E484K mutant (SARS-CoV-2), P0DTC2
Conditions: remark: other sources report otherwise

B1: Nb21 (VHH)
VHH: QVQLVESGGGLVQAGGSLRLSCAVSGLGAHRVGWFRRAPGKEREFVAAIGANGGNTNYLDSVKGRFTISRDNAKNTIYLQMNSLKPQDTAVYYCAARDIETAEYTYWGQGTQVTVSS
B1 was tested, and the binding affinity fold change relative to RBD WT was < -1000 fold.
